B1: Far upstream element-binding protein 1, residues 98 to 169; numbered along this chain, Q96AE4 (parent)
chain: RSVMTEEYKVPDGMVGFIIGRGGEQISRIQQESGCKIQIAPDSGGLPERSCMLTGTPESVQSAKRLLDQIVE

Variants of: B1
Experiment: abundance fitness (aPCA) (normalised: wild type 0, dead -1); higher = more abundant; growth selection in yeast, the domain comes from the species named
Conditions: Homo sapiens

Abundance fitness of substitutions, site by site:
P41: E 0.005; I -0.176; D 0.009; H -0.124; A -0.044; L -0.155; C -0.025; M -0.064; T -0.016; Q -0.031; K -0.04
G22: E -0.006; Y -0.137; S -0.1; M -0.129; W -0.15; Q -0.014; P -0.151; D 0.005; F -0.105; K -0.001; N 0.048; C -0.103; I -0.09; H -0.021; L -0.099
D42: A -0.041; E 0.014; F -0.094; C -0.015
Q31: M -0.061; E 0.028; H -0.06; G -0.089; Y -0.09; W -0.153; A -0.026; I -0.053; S -0.025; L -0.043; T -0.024; F -0.089; R -0.014; C 0.001; D 0.034; N -0.013
I39: A -0.252; H -0.266; Q -0.35; F 0.038; D -0.51; M -0.026; Y -0.207; V -0.032; K -0.445; L -0.081; T -0.227; N -0.415; W -0.109; C -0.109; E -0.36; R -0.369
G34: V -0.256; M -0.117; I -0.316; Q -0.086; C -0.095; Y -0.269; W -0.364; R -0.071; S -0.15; D -0.094; K -0.081; L -0.147; A -0.1; E -0.06; T -0.124; P -0.837; H -0.051; F -0.222
R21: V -0.11; E -0.251; P -0.027; H -0.118; Q 0.046; C -0.119; S 0.035
Q38: I 0.001; D -0.042; S -0.007; F -0.031; K -0.041; W -0.049; R -0.032; C -0.005; A -0.017; P -0.844; Y -0.138; T -0.027; H -0.034; G -0.09; E 0.023; M -0.038; L -0.036
E24: I -0.035; M -0.093; F -0.013; S -0.026; T -0.035; Q -0.084; N -0.163; H 0.026; K -0.035; G -0.057; L -0.108; A -0.032; D -0.064; V -0.072; C -0.082; W 0.171
Q25: N -0.107; G -0.035; Y -0.132; E 0.036; S -0.023; R -0.016; H -0.021; L -0.108; D -0.071; M -0.027; W -0.145; A -0.088; F -0.242; C -0.054; K -0.013; V -0.07
R28: F -0.168; D -0.016; V -0.108; H -0.021; G -0.093; S -0.045; L -0.071; M -0.083; W -0.104; I -0.215; K -0.028; T -0.068; Y -0.131; E -0.058; C -0.109; N -0.102; Q -0.033; A -0.066
I26: C -0.103; D -0.529; L 0.023; Q -0.096; P -0.515; V -0.104; R -0.17; A -0.132; M -0.084; S -0.239; H -0.139; T -0.092; W -0.158

— the Human Domainome abundance scans (Beltran et al. 2025)
